# Laboratory results as given in article PMC12199414, “A Self‐Assembling LYTAC Mediates CTGF Degradation and Remodels Inflammatory Tumor Microenvironment for Triple‐Negative Breast Cancer Therapy” (Advanced Science, 2025).
# What was measured:
# [1] = test system: MDA‐MB‐231‐Luc cells; assay: Lung metastasis model; assay type: in vivo, BALB/c nude mice; conditions: 10 mg kg^−1 i.v. every 2 days, 12 times, bioluminescence day 12, 18, 24, n = 3
# Method: Exponentially grown 5 × 10^5 MDA‐MB‐231‐Luc cells were suspended in 100 µL of PBS and intravenously injected into female nude BALB/c mice. The mice were randomly divided into […] (n = 3) and treated with PBS, 10 mg kg^−1 NanoCLY via intravenous injection every 2 days for 12 times in total. The growth of lung metastatic tumors was monitored by VISQUE In Vivo Elite after intraperitoneal injection of 20 mg kg^−1 D‐luciferin on day 12, day 18, and day 24. At the end of monitoring on day 24, the lungs were photographed and fixed, and H&E staining. Metastatic areas on the lung surface were quantified by ImageJ software.
# [2] = test system: red blood cells; assay: Hemolysis assay; assay type: cell-based, mice; conditions: mouse erythrocytes, 0-30 × 10^−6 M, 1 h, 37 °C, absorbance 570 nm
# Method: The hemolytic activities of CL8, CL8‐M6P3, and NanoCLY were determined by monitoring hemoglobin release from red blood cells. Fresh erythrocytes were obtained from the whole blood of mice by centrifugation (1000 × g for 30 min at 4 °C), and washed three times with cold 0.9% NaCl. The erythrocytes were dispensed into 96‐well plates, incubated with CL8, CL8‐M6P3 and NanoCLY at specified concentrations (0, 0.3, 1, 3, 10, and 30 × 10^−6 M) for 1 h at 37 °C, centrifuged at 1000 × g for 10 min, the supernatant samples were collected, and the absorbance at 570 nm was measured by microplate reader Cytation 5 (Biotek, USA). The negative control group was defined as the absorbance obtained in 1× PBS (A PBS), and 100% hemolysis in 0.1%Triton X‐100 (v/v) (A Triton). The hemolysis percentage was calculated as: (A peptide − A PBS)/(ATriton − A PBS) × 100%.
# [3] = Dynamic light scattering: size, PDI, zeta potential; assay type: physicochemical; conditions: DLS, 500 µg/mL in PBS
# Method: A solution of 1‐Dodecanethiol (0.5 mmol) and 2,2′‐Dithiodipyridine (0.6 mmol) in 10 mL MeOH was vigorously stirred for 3 h at room temperature. The reaction mixture was diluted with petroleum ether/ethyl acetate (50:1, v/v). The purified products 2‐(dodecyldisulfaneyl)pyridine were characterized by MS. CL8‐M6P3 (1.4 mg, 0.56 µmol, 1 eq.) and 2‐(dodecyldisulfaneyl)pyridine (261.7 µg, 0.84 µmol, 1.5 eq.) dissolved in 1 mL DMF/ddH2O (1/1, v:v) was vigorously stirred for 16 h at room temperature. The products were diluted with ddH2O. The aqueous layer was extracted with ethyl acetate three times, and filtered and concentrated under reduced pressure. For particle size measurement, NanoCLY was prepared at a final concentration of 500 µg/mL in PBS, sonicated for 30 min, and used for particle size analyzer (Malvern Panalytical, UK), transmission electron microscope (TEM) analysis (JEOL, Japan) and Nanosight NS300 (Malvern Panalytical, UK). 2‐(dodecyldisulfaneyl)pyridine, ESI‐MS calcd for C17H29NS2 [M + H]^+ 312.55, found 312.20. NanoCLY, ESI‐MS calcd for C107H176N27O47P3S2 [M + H]^+ 2750.77, found 1375.50.
substance,measurement,setting,value
"C12-CPSAAHYL-PEG3-[Pra(M6P)βAla]3-NH2 [NanoCLY, CL8-M6P3 joined to a lauryl chain via disulfide; self-assembling GSH-responsive LYTAC nanoparticle]",lung colonization by MDA-MB-231 cells,[1],significantly reduced lung colonization
same,hemolysis safety,[2],good hemolysis safety
same,polymer dispersity index (PDI),[3],0.301 ± 0.059
same,hydrodynamic diameter (size),[3]; sonicated 30 min,118.0 ± 9.38 nm
